Reference: publication PMC5658359, “A potent small-molecule inhibitor of the DCN1-UBC12 interaction that selectively blocks cullin 3 neddylation” (Nature Communications, 2017)
Primed or numbered codes have the meaning given here. Where no end group is shown, it is not given here. [ ]: non-standard residue; d: D form. Ala(benzothiazol-2-yl)′ = not defined here; Phe(2-Cl) = N[C@@H](Cc1ccccc1Cl)C(=O)O; 1Nal = N[C@@H](Cc1cccc2ccccc12)C(=O)O; 2Nal = N[C@@H](Cc1ccc2ccccc2c1)C(=O)O; hPhe = N[C@@H](CCc1ccccc1)C(=O)O

Target: T1, human DCN1 (residues 58–259), N-terminal His6 tag (human, UniProt Q96GG9 58-259)
T1 construct: DCN1 (defective in cullin neddylation 1), human, residues 58-259, cloned into pDEST17; residues 60-251 are visible in PDB 5UFI; also called defective in cullin neddylation 1; source: Rosetta2 cells, purified (Ni-NTA, Superdex 75); not shown: His6, N-terminal, kept
T1 sequence (Q96GG9 58-259): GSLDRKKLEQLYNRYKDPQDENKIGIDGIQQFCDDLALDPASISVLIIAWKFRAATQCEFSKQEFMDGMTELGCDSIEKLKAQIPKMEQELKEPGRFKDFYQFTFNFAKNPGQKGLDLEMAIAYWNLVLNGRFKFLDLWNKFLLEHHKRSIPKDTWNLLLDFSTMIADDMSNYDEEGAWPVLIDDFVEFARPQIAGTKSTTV
Experiment: fluorescence polarisation; competitive: peptide added to pre-incubated DCN1 (50 nM) and FAM-labelled small-molecule probe 46 (5 nM); 100 mM phosphate buffer pH 6.5, 0.02% Tween-20, 2% DMSO; room temperature, 30 min; Ki calculated from IC50
Details: both partners purified

B1: UBC12 peptide 8 (peptide, UniProt P61081 1-5, looked up)
peptide: MIKLF
notes: UBC12, N-terminal 5 residues (Met1 to Phe5; Ser6 deleted from 7); Terminal groups surmised Ac-...-NH2; source: synthetic peptide
- binding result: binds

Binder: [hPhe]IKL [compound 12 (tetrapeptide 9 with Met1 replaced by homophenylalanine)]
- fold decrease in binding affinity (reference not named: 9 or 11): 6 fold

Binder: [Phe(2-Cl)]IKL [compound 13 (11 with Cl at the ortho position of the phenyl ring)]
- fold decrease in binding affinity (against 11): 3 fold

B2: UBC12 peptide 2 (peptide 1 without Lys12) (peptide, UniProt P61081 1-11, looked up)
peptide: MIKLFSLKQQK
notes: UBC12, N-terminal 11 residues (truncation of Lys12 from the 12-residue peptide); Terminal groups surmised Ac-...-NH2; source: synthetic peptide
- binding result: binds

Binder: [1Nal]IKL [compound 22 (11 with the phenyl replaced by naphthalen-1-yl)]
- Ki: 354000 nM

Binder: [2Nal]IKL [compound 23 (11 with the phenyl replaced by naphthalen-2-yl)]
- fold more potent than 11: 11 fold

Binder: [Ala(benzothiazol-2-yl)′]IKL [compound 24 (11 with the phenyl replaced by benzothiazol-2-yl)]
- Ki: 150 nM

Binder: [Ala(5-Cl-benzothiazol-2-yl)]IKL [compound 25 (24 with 5-Cl on the benzothiazol-2-yl)]
- fold less potent than 24: 17 fold

Binder: [Ala(6-Cl-benzothiazol-2-yl)]IKL [compound 26 (24 with 6-Cl on the benzothiazol-2-yl)]
- fold more potent than 24: 4 fold

Binder: [Ala(6-isopropyl-benzothiazol-2-yl)]IKL [compound 27 (26 with the 6-Cl replaced by an isopropyl group)]
- Ki: 5 nM

B3: UBC12 peptide 3 (peptide, UniProt P61081 1-10, looked up)
peptide: MIKLFSLKQQ
notes: Terminal groups surmised Ac-...-NH2; source: synthetic peptide
- binding result: binds

B4: UBC12 peptide 4 (peptide, UniProt P61081 1-9, looked up)
peptide: MIKLFSLKQ
notes: as for B3
- binding result: binds

B5: UBC12 peptide 5 (peptide, UniProt P61081 1-8, looked up)
peptide: MIKLFSLK
notes: UBC12, N-terminal 8 residues (Met1 to Lys8); Terminal groups surmised Ac-...-NH2; source: synthetic peptide
- binding result: binds

B6: UBC12 seven-residue peptide (6) (peptide, UniProt P61081 1-7, looked up)
peptide: MIKLFSL
notes: UBC12, N-terminal 7 residues (Met1 to Leu7; Lys8 removed from 5); Terminal groups surmised Ac-...-NH2; source: synthetic peptide
- fold loss in binding affinity (against 5): 3 fold

B7: UBC12 peptide 7 (peptide, UniProt P61081 1-6, looked up)
peptide: MIKLFS
notes: UBC12, N-terminal 6 residues (Met1 to Ser6; Leu7 removed from 6); Terminal groups surmised Ac-...-NH2; source: synthetic peptide
- fold loss in binding affinity (against 6): 3 fold
